From patent US20160152995A1, “METHODS AND COMPOSITIONS TO IMPROVE THE SPREAD OF CHEMICAL SIGNALS IN PLANTS” (PIONEER HI-BRED INTERNATIONAL, INC., priority 2013, published 2016)
Where a chain is given by its changes, count along the chain named.

B1: CsL4.2-20: Chlorsulfuron (Cs) repressor, top hit of library CsL4.2 (protein)
chain: MARLDKSKVINSALELLNEVGIEGLTTRKLAQKLGVEQPTLYWHVKNKRALLDALAIEMHDRHQTHYLPLEGESWQDFLRNFAKSMRLALLSHRDGAKVSLGTRWTEQQYETAENMLAFLTQQGFSLENALYATDAVRVFTLGAVLLDQEQQVAKEERETPTPDSMPPLLRQAWELKVHQGAEPAFLFGLELIIAGLEKQLKRESGS
modifications: Sulfonylurea responsive repressor
B2: CsL4.2-24 (protein)
chain: MARLDKSKVINSALELLNEVGIEGLTTRKLAQKLGVEQPTLYWHVKNKRALLDALAIEMHDRHQTHYLPLEGESWQDYLRNFAKSMRCALLSHRDGAKVALGTRWTEQQYETAENMLAFLTQQGFSLENALYATSAVRVFTLGAVLLDQEGQVANEERETPTPDSMPPLLRQAWELKVHQGAEPAFLFGLELIIAGLEKQLKRESGSHHHHHH
modifications: Sulfonylurea responsive repressor
B3: CsL4.2-27 (protein)
chain: B2 chain with H60M, Y78F, A100S, S135D, G151Q, N155K, S165R, R171Q, V178E, E204D
modifications: Sulfonylurea responsive repressor
B4: CsL4.2-04 (protein)
chain: B2 chain with Y78F, S135D, G151Q, E157G, P163T, V178E
modifications: Sulfonylurea responsive repressor
B5: CsL4.2-01 (protein)
chain: B2 chain with C88R, S135D, N155K, P163T
modifications: Sulfonylurea responsive repressor
B6: CsL4.2-21 (protein)
chain: B2 chain with H60M, Q64G, Y78F, F82Y, C88R, F119C, G151Q, P163T
modifications: Sulfonylurea responsive repressor
B7: CsL4.2-26 (protein)
chain: B2 chain with A100S, G151Q, N155K, S165R
modifications: Sulfonylurea responsive repressor
B8: CsL4.2-23 (protein)
chain: B2 chain with H60M, G151Q, N155K, S165R
modifications: Sulfonylurea responsive repressor
B9: CsL4.2-18 (protein)
chain: B2 chain with H60M, Y78F, G151Q, N155K, S165R, I193L
modifications: Sulfonylurea responsive repressor
B10: CsL4.2-11 (protein)
chain: B2 chain with Q64G, C88R, A100S, G151Q, N155K, P163T, V178E, K202X
modifications: not fully specified; Sulfonylurea responsive repressor; VARIANT 202: Xaa = Any Amino Acid
B11: CsL4.2-17 (protein)
chain: B2 chain with H60M, G151Q, N155K, P163T
modifications: Sulfonylurea responsive repressor
B12: CsL4.2-28 (protein)
chain: B2 chain with H60M, G151Q, N155K, E156Q
modifications: Sulfonylurea responsive repressor
B13: CsL4.2-30 (protein)
chain: B2 chain with Y78F, C88R
modifications: Sulfonylurea responsive repressor
B14: CsL4.2-12 (protein)
chain: B2 chain with Q64G, Y78F, C88R, P163T
modifications: Sulfonylurea responsive repressor

Test system: E. coli assay strain Km3
Test: Liquid B-galactosidase assays of chlorsulfuron repressor hits (induction and repression)
Details: CsL4.2 hits; for IND = induction with 20 ppb CS (B-galactosidase) / REP = repression in absence of inducer (B-galactosidase): liquid B-galactosidase assay; for REP = repression in absence of inducer (B-galactosidase): no inducer; for F. IND = fold induction (IND/REP) (B-galactosidase): 20 ppb Cs vs no inducer
Experimental: In order to create new diversity for shuffling the top clone from CsL3 was subjected to error prone PCR mutagenesis using Mutazyme (Stratagene). The mutated PCR product encoding the CsR ligand binding domain was inserted into library expression vector pVER7334 as a Sac1 to Asc1 fragment, transformed into library strain Km3 and plated onto LB+40 ug/ml Kanamycin and 50 ug/ml Carbenecillin. Approximately 10,000 colonies were then replica plated onto M9 Xgal assay medium +/−20 ppb Cs. Putative hits were then re-arrayed and replica plated onto the same assay medium. Performance was gauged by the level of blue colony color after 24 hrs incubation on inducer (induction) and 72 hrs incubation without inducer (repression). The top hits were then subjected to liquid B-galactosidase assays for quantitative assessment (Table 21).
Seventh round library CsL4.2 was designed based on the best diversity from CsL3 and CsL3-MTZ library screens (Table 14). The library was assembled with oligonucleotides shown below in Table 22. The first and last primers were used as rescue primers. CsL4.2 included a C-terminal 6×His-tag extension to facilitate protein purification. The library was assembled and cloned into vector pVER7334 Sac1 to Asc1, transformed into library assay strain Km3 and plated onto LB+40 ug/m1 Kanamycin and 50 ug/ml carbenecillin. Approximately 8,000 colonies were re-arrayed into 384-well format and replica plated onto M9 Xgal assay medium +/−2 ppb Cs. Putative hits were re-arrayed in 96-well format onto the same media for re-testing. Confirmed hits were then tested for induction and repression aspects in liquid culture using B-galactosidase assays.
Mutagenesis reactions were transformed into E. coli assay strain Km3 and plated onto LB+50 ug/ml Carbenecillin. Colonies were then re-arrayed into 384 well format and replica plated onto M9 Xgal assay medium +/−5 ppb Chlorsulfuron. Putative hits were then re-arrayed and analyzed by B-galactosidase assays relative to the parent clones (FIG. 10).

Row | Molecule | IND = induction with 20 ppb CS (B-galactosidase) | REP = repression in absence of inducer (B-galactosidase) | F. IND = fold induction (IND/REP) (B-galactosidase)
1 | B1 | 7.4 | 0.2 | –
2 | B2 | 5.4 | 0.4 | 14.3
3 | B3 | 3.2 | 0.4 | 9.1
4 | B4 | 4.3 | 0.4 | 10.2
5 | B5 | 3.8 | 0.4 | 9.8
6 | B6 | 3.2 | 0.2 | 13.2
7 | B7 | 3.1 | 0.3 | 10.6
8 | B8 | 10.4 | 1.0 | 10.5
9 | B9 | 6.8 | 0.7 | 9.3
10 | B10 | 4.8 | 0.5 | 8.9
11 | B11 | 3.1 | 0.3 | 9.7
12 | B12 | 5.3 | 0.5 | 11.3
13 | B13 | 4.9 | 0.5 | 10.8
14 | B14 | 6.4 | 0.7 | 9.5
